Laboratory results from patent US20090258005A1 (TRUBION PHARMACEUTICALS, published 2009).

T1: L1-CR1 (Her054P)
T1 construct: also called 1.0
T1 chain: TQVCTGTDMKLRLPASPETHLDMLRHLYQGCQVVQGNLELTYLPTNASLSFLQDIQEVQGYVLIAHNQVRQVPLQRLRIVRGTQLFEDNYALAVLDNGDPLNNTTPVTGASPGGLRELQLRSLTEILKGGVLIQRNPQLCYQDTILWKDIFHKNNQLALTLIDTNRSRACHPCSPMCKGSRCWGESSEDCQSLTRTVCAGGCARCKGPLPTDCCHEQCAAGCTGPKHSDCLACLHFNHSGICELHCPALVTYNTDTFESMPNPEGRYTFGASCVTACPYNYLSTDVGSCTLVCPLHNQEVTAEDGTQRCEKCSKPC


Key:
L1-CR1 (Her054P) = target: T1, L1-CR1 (Her054P); experiment: ELISA, soluble scFv on L1-CR1
Protocol: (§1) Various Her2-Fc proteins (e.g., Her008P, Her017P, Her018P, etc.) or a negative control murine IgG2a protein were coated overnight at 4° C. on 96-well Nunc Maxisorp at a concentration of 1 ug/ml in PBS. Alternatively, pre-blocked streptavidin-coated plates (Greiner) were coated with biotinylated Her2-Fc proteins for 1 hour at room temperature at a concentration of 1 ug/ml in block buffer (3% skim milk/1% BSA/PBS). Plates were washed three times using PBS and blocked for 1 hour at room temperature in 3% skim milk/1% BSA/PBS. Phage or peripreps were prepared as described above and were blocked for 1 hour at room temperature in an equal volume of 6% skim milk/1% BSA/PBS. Blocked plates were washed five times with PBS and 50 μl/well of blocked phage or periprep were transferred to the appropriate plates and incubated for 1 hour at room temperature. […] Plates were incubated for a further hour at room temperature and washed seven times with PBS. Signal was developed using TMB, the reaction stopped with H₂SO₄ and the absorbance read at 450 nm on an Envision plate reader (Perkin Elmer).

Full length HER2 = target: T2, Full length HER2 (human, UniProt P04626 23-1255); experiment: cell ELISA, phage scFv, SKBR3 cells
T2 construct: Endogenous HER2 on SKBR3, BT474, 22rv1, MDA-MB-175, MDA-MB-453 and MDA-MB-361 cells; also called HER2 on the cell surface; ErbB2

[1] = target: T3, Her018P, Her2 ECD with a deletion in the CR2 (Domain IV) region expressed with a mIgG2a Fc tail (human; murine, UniProt P04626 23-599); experiment: ELISA, soluble scFv on Her018
T3 construct: Shares the name HER018 with the trastuzumab SMIP; also called 1.8 (Dimer); dimeric HER018; not shown: murine IgG2a Fc tail (C-terminal dimerising carrier) and any junction residues

EQR (Her017P) = target: T4, EQR (Her017P); experiment: ELISA, soluble scFv on EQR
T4 construct: also called HER2 EQR-Fc; HER2 EQR DIMER
Protocol: as §1

[2] = target: T5, Her008P, full-length extracellular domain (ECD) of Her2 expressed with a mIgG2a Fc tail (human; murine, UniProt P04626 23-652); experiment: ELISA, soluble scFv on ECD
T5 construct: also called SIIS; SIIS (Dimer); not shown: murine IgG2a Fc tail

ECD region of Her2 = target: T6, ECD region of Her2 (human, UniProt P04626 23-652); experiment: screening after three rounds of phage selection, soluble periplasmic scFv
T6 construct: extracellular domain; Generic target of the scFv screen; also called extracellular domain (ECD) of Her2 (ErbB2)

| Binder | binding result (L1-CR1 (Her054P)) | binding result (Full length HER2) | binding result [1] | binding result (EQR (Her017P)) | binding result [2] | binding result (ECD region of Her2) |
| --- | --- | --- | --- | --- | --- | --- |
| S1R3B2_BMV_1H5 (scFv, V domains shown, scFv, on phage in the screen; also called Her2_S1R3B2_BMV_1H5) VH: EVQLVQSGGGLVRPGGSLRLSCAASGFSFSDYYMTWIRQIPGKGLEWVAVIWNDGSDRYYADSVKGRFTISRDNSKNTLFLQMSSLRDEDTALYYCVRGGPTASSGFDYWGRGTLVTVSS VL: SSELTQPASVSGSPGQSITISCTGTSSDVGGYNYVSWYLQHPGKAPKLMIYEGSKRPSGVSNRFSGSKSGNTASLTISGLQAEDEADYYCSSYTTRSTRVFGGGTKLTVL | no binding | binds | – | – | – | – |
| S1R3A1_BMV_1G4 (scFv, V domains shown, scFv, soluble from bacterial periplasm in the screen; also called Her2_S1R3A1_BMV_1G4) VH: QVQLVESGAEVKKPGASVKVSCKASGYTFTSYDINWVRQAPGQRLEWMGWINAGNGNTKYSQKFQGRVTITRDTSASTAYMELRSLRSDDTAVYYCARGRSYGHPYYFDYWGQGTLVTVSS VL: QSVLTQPASVSGSPGQSITISCTGTSSDVGGYNYVSWYQQHPGKAPKLMIYEGSKRPSGVSNRFSGSKSGNTASLTISGLQAEDEADYYCSSYTTRSTRVFGGGTKLTVL | no binding | – | no binding | no binding | – | – |
| S1R3A1_CS_1B9 (scFv, V domains shown, scFv, soluble from bacterial periplasm in the screen; also called Her2_S1R3A1_CS_1B9) VH: KVQLVQSGTEVKKPGESLKISCQGSGYRFSSDWIAWVRQMPGKGLEWMGIVYPGDSDTRYSPSFQGQVTISADKSISTAYLQWSGLKASDTAKYYCARVQQAVGAKGYAMDVWGKGTLVTVSS VL: QTVVIQEPSFSVSPGGTVTLTCGLSSGSVSTSYYPSWYRQTPGQAPHTLIHNTKIRSSGVPDRFSGSILGNNAALTITGAQADDESDYYCLLYMGSGIYVFGGGTKLTVL | – | – | binds | binds | binds | binds |
| S1R3C1_CS_1B10 (scFv, V domains shown, scFv, on phage in the screen; also called Her2_S1R3C1_CS_1B10) VH: QVQLQQSGAEVKKPGSSVKVSCKASGGTISNYAISWVRLAPGQGLEWMGSIVPLHGTTNFAQKFQGRVTITADESTSTSYMEVNVLTYEDTAMYYCASLNWGYWGRGTLVTVSS VL: NFMLTQPHSVSESPGKTVTISCTGSSGSIASNYVQWYQQRPDSAPTTVIYEDNRRSSGVPDRFSGSIDSSSNSASLSISGLKTEDEADYYCQSYDSSGHVVFGGGTKLTVL | no binding | – | – | – | – | – |
| S1R3C1_DP47_1H1 (scFv, V domains shown, scFv, soluble from bacterial periplasm in the screen; also called Her2_S1R3C1_DP47_1H1) VH: not shown VL: QSVLTQPPSVSVAPGQTARITCGGDKIGHKSVHWYQQKPGQAPVLLVYDDRKRPSGIPERFSGSNSGNTATLTISRVEAGDEAAYHCQVWDRSSDPYVFGTGTKVTVL | no binding | – | no binding | no binding | – | – |
| S1R3B1_DP47_1E1 (scFv, V domains shown, scFv, soluble from bacterial periplasm in the screen; also called Her2_S1R3B1_DP47_1E1) VH: not shown VL: NFMLTQPHSVSGSPGKTVTISCTRSSGYIDSKYVQWYQQRPGSAPTTVIYEDNRRPSGVPDRFSGSIDSSSNSASLTISGLETEDEADYYCQSYDDTNVVFGGGTKVTVL | no binding | – | no binding | no binding | – | – |
| S1R3C1_BMV_1H11 (scFv, V domains shown, scFv, soluble from bacterial periplasm in the screen; also called Her2_S1R3C1_BMV_1H11) VH: GVQLVESGGGLVKPGGSLRLSCAASGFTFSSYNMNWVRQAPGKGLEWVSAISGSGGSTYYADSVTGRFTISRDNSKNTLYLQMNSLRAEDTAVYYCAKDTSGWYGDGMDVWGRGTLVTVSS VL: DIQMTQSPSTLSASIGDRVTITCRASEGIYHWLAWYQQKPGKAPKLLIYKASSLASGAPSRFSGSGSGTDFTLTISSLQPDDFATYYCQQYSNYPLTFGGGTKLEIK | no binding | – | no binding | no binding | – | – |
| S1R3C1_CS_1A6 (scFv, V domains shown, scFv, on phage in the screen; also called Her2_S1R3C1_CS_1A6) VH: EVQLVQSGAEVKKPGESLKISCKGFGYNFRSAWIGWVRQMPGKGLEWMGVIYPGDSDVRYSPSFQGQVTISADKSISTAYLQWSSLKASDTAMYYCTRPVGQWVDSDYWGKGTLVTVSS VL: QSVLTQPPSASGTPGQRVTISCSGSSSNIGTNTVNWYQQLPGTAPKLLIYTSNQRPSGVPARFSASNSGTSASLAISGLRSEDEADYYCAAWDDKLSGAVFGGGTKLTVL | no binding | binds | – | – | – | – |
| S1R3A1_CS_1B10 (scFv, V domains shown, scFv, soluble from bacterial periplasm in the screen; also called Her2_S1R3A1_CS_1B10) VH: EVQLVQSGAEVKKPGASVRVSCKGSGNTFTGHYIHWVRQAPGQGLEWLGWIDPNTGDIQYSENFKGSVTLTRDPSINSVFMDLIRLTSDDTAMYYCAREGAGLANYYYYGLDVWGRGTMVTVSS VL: QTVVLQEPSFSVSPGGTVTLTCGLNFGSVSTAYYPSWYQQTPGQAPRTLIYGTNIRSSGVPDRFSGSIVGNKAALTITGAQTEDESDYYCALYMGSGMLFGGGTKVTVL | – | – | binds | binds | binds | binds |
| S1R3B1_BMV_1C12 (scFv, V domains shown, scFv, soluble from bacterial periplasm in the screen; also called Her2_S1R3B1_BMV_1C12) VH: EVQLVQSGGGVVQPGRSLRLSCAASGFTFSSYGMHWVRQAPGKGLEWVAVISYDGSIKYYADSVKGRFTISRDNSKNTLYLQMNSLRAEDTAVYYCARTGEYSGYDTSGYSNWGQGTLVTVSS VL: QSVLTQPPSASGTPGQRVTISCSGSSSNIGSNTVNWYQRLPGAAPQLLIYNNDQRPSGIPDRFSGSKSGTSGSLVISGLQSEDEADYYCASWDDSLNGRVFGGGTKLTVL | no binding | – | – | – | – | – |
| S1R2A_CS_1F7 (scFv, V domains shown, scFv, on phage in the screen) VH: not shown VL: QSVLTQPPSVSVAPGQTARMTCGGNNIESKTVHWYQQKPGQAPVLVVYNDNVRPSGIPARFSGSNSGNTATLTINRVEAGDEADYYCQVWDSSRDQGVFGGGTKLTVL | no binding | binds | – | – | – | – |
| S1R2C_CS_1H12 (scFv, V domains shown, scFv, on phage in the screen) VH: EVQLVETGGGLVQPGGSLRLSCAASGFTFSSYGMNWVRQAPGKGLEWVSYISSSGNTIFYADSVKGRFTISRDSAKNSVSLQMNSLRDEDTAVYYCASYYSYYYGMDAWGQGTMVTVSS VL: not shown | no binding | binds | no binding | no binding | – | – |
| S1R3B2_BMV_1E1 (scFv, V domains shown, scFv, on phage in the screen; also called Her2_S1R3B2_BMV_1E1) VH: EVQLVETGGGVVQPGGSLSLSCAASGFTFSSYGMQWVRQAPGKGLEWVAFIRYDGSSEYYADSVKGRFTISRDNSKNTLYLQMNSLRAEDTAVYYCGRTLESSLWGKGTLVTVSS VL: QSVLTQPPSVSAAPGQKVTISCSGSTSNIGNNYVSWYQQHPGKAPKLMIYDVSKRPSGVPDRFSGSKSGNSASLDISGLQSEDEADYYCAAWDDSLSEFLFGTRTKLTVL | no binding | binds | no binding | no binding | – | – |
| S1R2A_CS_1D3 (scFv, V domains shown, scFv, on phage in the screen) VH: EVQLVQSGAEVKKPGASVKVSCKASGYSFTAFYIHWVRQAPGQGLEYLGWIDPNTGATKYAQRFQGRVIMTWDTSITTATMELSRLTSDDSAVYYCVRDLREWGYELSVEYWGRGTLVTVSS VL: not shown | no binding | binds | no binding | no binding | – | – |
| S1R3B2_DP47_1C9 (scFv, V domains shown, scFv, on phage in the screen; also called Her2_S1R3B2_DP47_1C9) VH: not shown VL: QSVLTQPPSASGTPGQTVTISCSGSSSNIGSSVVNWYQQFPGTAPKVLVYSNTQRPSGVPDRFSGSRSGTSASLAISGLQSEDEADYYCLAWDASLNGWVFGGGTKLTVL | no binding | binds | no binding | – | – | – |
| S1R3B2_DP47_1E8 (scFv, V domains shown, scFv, on phage in the screen; also called Her2_S1R3B2_DP47_1E8) VH: not shown VL: QAVLTQPSAVSGAPGQRVTISCTGTSSNIGTNYLVHWYQQRPGTAPQLLVSGNNTRPSGVTDRFSVSKSATSASLAITGLQAEDEADYYCQTYDINLRVWVFGGGTKVTVL | no binding | binds | no binding | – | – | – |
| S1R3B2_DP47_1E10 (scFv, V domains shown, scFv, on phage in the screen; also called Her2_S1R3B2_DP47_1E10) VH: not shown VL: HVILTQPPSTSGTPGQTVTISCSGSSSNIGSHYVYWYQQLPGTAPKLLIYRNNQRPSGVPDRFSGSKSGTSASLAISGLRSEDETDYYCAAWDDSLSGRVFGTGTKLTVL | no binding | binds | no binding | no binding | – | – |
| S1R3B1_BMV_1A10 (scFv, V domains shown, scFv, soluble from bacterial periplasm in the screen; also called Her2_S1R3B1_BMV_1A10) VH: QMQLVQSGGGVVQPGRSLRLSCAASGFTFSSYGMHWVRQAPGKGLEWVAVISYDGSIKYYADSVKGRFTISRDNSKNTLYLQMNSLRAEDTGVYYCSKDRYSSGWYSSDAFDIWGRGTMVTVSS VL: SSELTQDPAVSVALGQTVRITCQGDSLRSYYASWYQQKPGQAPVLVIYGKNNRPSGIPDRFSGSSSGNTASLTITGAQAEDEADYYCHSRDSSGNHVLFGGGTKLTVL | no binding | – | no binding | no binding | – | – |
